Laboratory results taken from patent WO2017055393A1 (dated 2017).

Target: T1, human Tim-3 (T cell Immunoglobulin- and Mucin domain-containing molecule 3) (human, UniProt Q8TDQ0 22-301)
T1 sequence (looked up): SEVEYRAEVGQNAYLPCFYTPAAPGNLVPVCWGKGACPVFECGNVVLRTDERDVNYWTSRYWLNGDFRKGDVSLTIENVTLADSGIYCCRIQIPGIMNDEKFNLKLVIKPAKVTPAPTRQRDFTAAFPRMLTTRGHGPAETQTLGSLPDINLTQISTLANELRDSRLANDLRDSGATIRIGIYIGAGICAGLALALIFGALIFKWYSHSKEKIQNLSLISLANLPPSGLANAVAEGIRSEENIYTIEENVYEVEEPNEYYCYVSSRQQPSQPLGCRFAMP
Experiment: cell-based or functional assay

B1: TIM3 TCB molecule: anti-Tim-3 / anti-CD3 T cell bispecific (TCB) molecule, "2+1 IgG CrossFab, inverted" with charge modifications (VH/VL exchange in CD3 … (bispecific antibody)
heavy 1: QVTLKESGPGILQPSQTLRLTCSFSGFSLSTSGMSVGWIRQPSGKGLEWLAHIWLNDDVFFNPALKSRLTISKDTSNNQVFLQIASVVTADTATYYCVRANGYLYALDYWGQGTSVTVSSASTKGPSVFPLAPSSKSTSGGTAALGCLVEDYFPEPVTVSWNSGALTSGVHTFPAVLQSSGLYSLSSVVTVPSSSLGTQTYICNVNHKPSNTKVDEKVEPKSCDKTHTCPPCPAPEAAGGPSVFLFPPKPKDTLMISRTPEVTCVVVDVSHEDPEVKFNWYVDGVEVHNAKTKPREEQYNSTYRVVSVLTVLHQDWLNGKEYKCKVSNKALGAPIEKTISKAKGQPREPQVCTLPPSRDELTKNQVSLSCAVKGFYPSDIAVEWESNGQPENNYKTTPPVLDSDGSFFLVSKLTVDKSRWQQGNVFSCSVMHEALHNHYTQKSLSLSP
heavy 2: not shown
light 1: EVQLLESGGGLVQPGGSLRLSCAASGFTFSTYAMNWVRQAPGKGLEWVSRIRSKYNNYATYYADSVKGRFTISRDDSKNTLYLQMNSLRAEDTAVYYCVRHGNFGNSYVSWFAYWGQGTLVTVSSASVAAPSVFIFPPSDEQLKSGTASVVCLLNNFYPREAKVQWKVDNALQSGNSQESVTEQDSKDSTYSLSSTLTLSKADYEKHKVYACEVTHQGLSSPVTKSFNRGEC
light 2: QIVLTQSPAIMSASPGQKVTITCSASSSVNYTQWYQQKLGSSPKLWIYDAFKLAPGVPARFSGSGTGTSYSLTISSMEAEDAASYFCHQWSSYPWTFGGGTKLEIKRTVAAPSVFIFPPSDRKLKSGTASVVCLLNNFYPREAKVQWKVDNALQSGNSQESVTEQDSKDSTYSLSSTLTLSKADYEKHKVYACEVTHQGLSSPVTKSFNRGEC
Cytotoxic activity TCB (LDH), IC50 pM, CMK cells (AML): 300 pM
Cytotoxic activity TCB (LDH), IC50 pM, EOL-1* cells (AML; 24h pre-treated with 10 ng/ml PMA): 300 pM
Cytotoxic activity TCB (LDH), IC50 pM, KG-1 cells (AML): 1000 pM
Cytotoxic activity TCB (LDH), IC50 pM, Karpas-299 cells (NHTCL): 500 pM
Cytotoxic activity TCB (LDH), IC50 pM, Kasumi-1 cells (AML): 3000 pM
Cytotoxic activity TCB (LDH), IC50 pM, Pfeiffer cells (NHBCL): 10 pM
Cytotoxic activity TCB (LDH), IC50 pM, RPMI-8226 cells (MM): 100 pM
Cytotoxic activity TCB (LDH), IC50 pM, SR cells (LCIBL): 100 pM
EC50 of tumor cell lysis, 24 h LDH release, CHO K1 cells stably expressing human TIM-3, thawed expanded T cells, E:T 1:1: 0.003 nM
EC50 of tumor cell lysis, 24 h LDH release, Pfeiffer cells, thawed expanded T cells, E:T 1:1: 0.06 nM
